From PMC9328131
Read-outs that look alike come from different tables or passages of the source.

T1: Ecm16 (Streptomyces lasalocidi, UniProt Q0X0A9 1-792)
T1 sequence: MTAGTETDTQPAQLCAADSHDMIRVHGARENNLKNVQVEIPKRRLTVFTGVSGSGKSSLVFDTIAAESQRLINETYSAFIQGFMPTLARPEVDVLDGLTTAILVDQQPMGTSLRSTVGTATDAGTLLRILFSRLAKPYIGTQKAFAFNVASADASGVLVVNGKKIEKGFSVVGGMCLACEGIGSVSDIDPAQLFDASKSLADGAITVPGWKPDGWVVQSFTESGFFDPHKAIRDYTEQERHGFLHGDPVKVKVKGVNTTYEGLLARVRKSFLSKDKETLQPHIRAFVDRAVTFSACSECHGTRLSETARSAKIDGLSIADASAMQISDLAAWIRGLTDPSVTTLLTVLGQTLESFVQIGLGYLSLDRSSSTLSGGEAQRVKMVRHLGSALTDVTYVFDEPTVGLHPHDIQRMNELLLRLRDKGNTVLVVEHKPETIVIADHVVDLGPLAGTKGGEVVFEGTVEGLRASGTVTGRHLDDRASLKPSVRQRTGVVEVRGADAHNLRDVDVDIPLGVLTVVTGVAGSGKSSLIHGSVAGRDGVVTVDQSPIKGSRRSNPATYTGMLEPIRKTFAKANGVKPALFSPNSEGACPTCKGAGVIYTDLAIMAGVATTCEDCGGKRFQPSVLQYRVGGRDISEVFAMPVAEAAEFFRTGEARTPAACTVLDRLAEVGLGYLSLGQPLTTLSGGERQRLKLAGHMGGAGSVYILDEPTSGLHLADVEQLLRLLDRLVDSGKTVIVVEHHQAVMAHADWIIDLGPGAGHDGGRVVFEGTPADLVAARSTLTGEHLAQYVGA

B1: 32-mer dsDNA (dsDNA)
DNA 1: AGTGATCAGTGGTTACGTAACCACTGATCACT
DNA 2: B1 DNA 1
B2: 32-mer ssDNA (ssDNA)
DNA: B1 DNA 1

What was measured:
Assay in all cases: EMSA
[1] = target: T1, Ecm16
[2] = target: T1, Ecm16; remark: listed apart in the source
[3] = target: T1, Ecm16; remark: listed apart in the source

Binder	Kd [1] [nM]	Kd [2] [nM]	Kd [3] [nM]
B1	20.6	34.8	
B2			39.6
